Results on four molecules are retold here after publication PMC7228753 (Science Advances, 2020).

The target in experiment [1] is T1, IRF5 (Homo sapiens, UniProt Q13568). Type of experiment: cell-based.
The target in the next experiment is endogenous IRF5 (Homo sapiens, UniProt Q13568). Type of experiment: cell-based.
Experiment [2] has as its target T1, IRF5. The class given is cell-based. The source holds these as a separate data set.
For experiment [3], the target named is T1, IRF5. Type of experiment: cell-based. This is another data set of the same source.
For experiment [4], the target named is wild-type (WT) IRF5, tagged with either His or biotin at the C terminus (human). As to the kind of experiment: FRET or BRET.
The target in experiment [5] is IRF5 [change], tagged with either His or biotin (human). Put plainly: FRET or BRET. On the technique in general: Bioluminescence resonance energy transfer reports proximity on the nanometre scale.

With Ac-IKVMWPILFIIKLVHSDKKI-NH2 [IRF5-CPP8], the “effect on R848-induced IRF5 homodimerization” value on IRF5 [1] is reported as “Neither of these two peptides inhibited”. For the same molecule, the “in-cell FRET signal with TRITC-IRF5” value at endogenous IRF5 was “minimal FRET signal”. In addition, the “inhibition of R848-induced IRF5 nuclear translocation in CD14+ monocytes” value against IRF5 [2] is reported as “neither peptide provided IRF5-specific inhibition”. For the same molecule, the “inhibition of R848-induced IRF5 nuclear translocation in CD19+ B cells” value on IRF5 [3] is listed as “neither peptide provided IRF5-specific inhibition”.
Regarding “IRF5-CPP9: Negative control for IRF5-CPP5; lacks the IRF5-specific sequences (MANLGYWLLALFVTMWTDVGLCKKRPKP)”, in the experiment with IRF5 [1], the “effect on R848-induced IRF5 homodimerization” value was “Neither of these two peptides inhibited”. Also, in the experiment with endogenous IRF5, the “in-cell FRET signal with TRITC-IRF5” value was “minimal FRET signal”. Also, the “inhibition of R848-induced IRF5 nuclear translocation in CD14+ monocytes” value with IRF5 [2] is listed as “neither peptide provided IRF5-specific inhibition”. Besides, the “inhibition of R848-induced IRF5 nuclear translocation in CD19+ B cells” value with IRF5 [3] is on record as “neither peptide provided IRF5-specific inhibition”.
With “wild-type (WT) IRF5, tagged with either His or biotin at the C terminus (natural protein)”, the Kd (usually the constant that tells how readily two partners part at equilibrium) in experiment [4] worked out at 4.21 µM.
As to Ac-IRLQISNPYLKFIPLKRAIWLIK-NH2 [IRF5-CPP1], in experiment [5], the IC50 (as a rule, the concentration that inhibits the measured activity by half) was over 75 µM.
